This note sets out measurements from patent publication US20150110777A1 (PROTHENA BIOSCIENCES, published 2015).

Test [1] concerns the target T1, human islet-amyloid polypeptide (IAPP) (human).
T1 construct: also called hIAPP; human IAPP
T1 peptide: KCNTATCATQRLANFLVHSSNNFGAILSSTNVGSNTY
Put plainly: Biacore SPR; affinity compared with murine 6B8 as reference. The protocol:
(§1) The affinity of various combinations of 6B8 humanized heavy chains and humanized light chain proteins for hIAPP was analyzed on a Biacore instrument. Biacore analysis was performed by preparing an anti-human CM5 chip following the protocol provided in the kit. The 6B8 antibody was captured such that the maximum binding of rat IAPP would not exceed 20-30 RU. […] Data was blank subtracted to both an irrelevant sensor not containing 6B8 and 0 IAPP concentration to account for the dissociation of 6B8 from the anti-human capture. Data was then analyzed using a global 1:1 fit.
A general note: SPR reads the build-up and loss of mass on a sensor chip optically.

The target of test [2] is T2, rat IAPP (rat, UniProt P12969 38-74).
T2 peptide (looked up): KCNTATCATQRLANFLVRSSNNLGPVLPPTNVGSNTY
Nature of the test: Biacore SPR; antibody captured on anti-human CM5 chip, rat IAPP flowed over; global 1:1 fit. As for the experimental part: as §1

Test [3] has as its target T2, rat IAPP. Put plainly: not stated for the murine antibody; sentence follows the Biacore results.
Test [4] concerns the target T2, rat IAPP. Put plainly: Biacore SPR (result of Example 7 told in the description). The protocol:
as §1

Test [5] addresses T3, peptide NTATCATQRL, amino acids 3-12 of hIAPP (human).
T3 peptide: NTATCATQRL
Nature of the test: epitope mapping against shorter peptides from hIAPP.

B1: chimeric mouse-human 6B8 antibody (antibody, V domains shown)
VH: QVQLQQPGAELVKPGASVRLSCKASGYTFTSYWMHWVKQRPGQGLEWLGEINPRNGHSNYNEKIRNKATLTADTSSSTVSMQLSSLTSEDSAVYYCTVNRGFYYFFDVWGTGTTVTVSS
VL: DVLMTQSPLSLPVSLGDQASISCRSSQSIAHSNGNTYLEWYLQKPGQSPKLLIYKVSNRFSGVPDRFSGSGSGTDFTLKISRVEAEDLGVYYCFQGSHIPRTFGGGTKLEIKR
notes: Mouse 6B8 variable regions with human constant regions; captured on an anti-human chip; also called ch6B8; chimeric 6B8 antibody
One may read the Kd as a measure of binding affinity in units of concentration. By koff is commonly meant a measure of how fast the partners let go of each other. As a reminder, the kon is a measure of how fast the partners come together. On to B1, for which the “fold of the affinity of the murine 6B8 antibody” value in test [1] is no more than 3 fold. In test [2], the Kd was determined as 23.4 nM, the koff is 0.00513 s⁻¹ and the kon is 220000 M⁻¹ s⁻¹. Besides, in test [3], the “fold difference in affinity against the murine 6B8 antibody” value was no more than 3 fold.

B2: humanized 6B8 H2L1 antibody (antibody, V domains shown)
VH: QVQLQQSGAEVKKPGASVKVSCKASGYTFTSYWMHWVRQRPGQGLEWMGEINPRNGHSNYNEKIRNRVTMTADTSTSTVYMELSSLRSEDTAVYYCTVNRGFYYFFDVWGQGTTVTVSS
VL: DVLMTQSPLSLPVTPGEPASISCRSSQSIAHSNGNTYLEWYLQKPGQSPQLLIYKVSNRFSGVPDRFSGSGSGTDFTLKISRVEAEDVGVYYCFQGSHIPRTFGGGTKLEIKR
notes: Only variable regions are tied to the tested antibody; also called h6B8-H2L1; h6B8 H2L1
Consider B2, for which the “fold of the affinity of the murine 6B8 antibody” value in test [1] is no more than 3 fold. Also, in test [2], the Kd worked out at 31.2 nM, the koff was determined as 0.00832 s⁻¹ and the kon was determined as 266000 M⁻¹ s⁻¹. Besides, the “factor of affinity against the mouse-human chimeric 6B8 antibody” value in test [4] was no more than 1.5 fold. In addition, the “fold difference in affinity against the murine 6B8 antibody” value in test [3] was no more than 3 fold.

B3: murine 6B8 antibody (LA21-6B8) (antibody, V domains shown)
VH: QVQLQQPGAELVKPGASVRLSCKASGYTFTSYWMHWVKQRPGQGLEWLGEINPRNGHSNYNEKIRNKATLTADTSSSTVSMQLSSLTSEDSAVYYCTVNRGFYYFFDVWGTGTTVTVSS
VL: DVLMTQSPLSLPVSLGDQASISCRSSQSIAHSNGNTYLEWYLQKPGQSPKLLIYKVSNRFSGVPDRFSGSGSGTDFTLKISRVEAEDLGVYYCFQGSHIPRTFGGGTKLEIKR
notes: also called m6B8; mouse 6B8
As for B3, in test [5], the binding result is reported as “binds”.
